Results on 1 substance are retold here after publication PMC6796855.

The target of this assay is GST-ATG16L1N (human) (UniProt Q676U5). Put plainly: pull-down; recombinant GST fusion (2–200 nM) on glutathione resin, incubated with 1.5 mg of a 1:3.5 mixture of wild-type and ATG7 KO PC-3 lysates; 20 mM Tris-HCl pH 8.0, 200 mM NaCl, 1 mM EDTA, 0.5% NP-40; immunoblot for GST and ATG5; fraction bound quantified. In general terms: A western blot detects proteins with antibodies after separation by electrophoresis.
GST-ATG16L1N (human), sequence (Q676U5 1-69): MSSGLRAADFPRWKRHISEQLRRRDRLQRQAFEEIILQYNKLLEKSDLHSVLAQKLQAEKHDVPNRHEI

native ATG12–ATG5 conjugate, sequence (Q9H1Y0 whole entry): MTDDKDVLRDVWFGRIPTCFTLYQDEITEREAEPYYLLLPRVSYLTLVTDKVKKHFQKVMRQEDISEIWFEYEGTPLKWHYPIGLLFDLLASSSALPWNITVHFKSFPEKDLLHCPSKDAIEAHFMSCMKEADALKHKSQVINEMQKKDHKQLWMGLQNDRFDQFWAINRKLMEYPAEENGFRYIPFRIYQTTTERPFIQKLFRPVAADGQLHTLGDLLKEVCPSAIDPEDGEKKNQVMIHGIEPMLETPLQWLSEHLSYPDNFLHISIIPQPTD
native ATG12–ATG5 conjugate, sequence (O94817 whole entry): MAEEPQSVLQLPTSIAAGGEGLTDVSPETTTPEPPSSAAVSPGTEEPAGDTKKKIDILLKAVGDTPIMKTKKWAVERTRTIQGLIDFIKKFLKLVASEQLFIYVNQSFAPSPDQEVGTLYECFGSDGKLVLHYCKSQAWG

As for “native ATG12–ATG5 conjugate (from UniProt Q9H1Y0 1-275; O94817 1-140) (complex)”, the fold higher affinity than unconjugated ATG5 was determined as 10 fold.
